Laboratory results published in paper PMC9506415.

Target: human fibronectin (human) (UniProt P02751)
Experiment: dual-polarization interferometry (DPI); 100 μg/mL FN immobilised on an amine-functionalised AnaChip, sealing agent, then samples injected; Tris-HCl pH 7.4 with 0.1 M NaCl; layer thickness and mass resolved

resolved layer mass after adsorption of gelatin (3.68 ng/mm^2 before): 3.86 ng/mm^2 | resolved layer thickness after adsorption of gelatin (11.60 nm before): 12.6 nm
Substance: bovine gelatin (G9382, type B)
